Measurements: publication PMC3869717, “The PCNA Interaction Protein Box Sequence in Rad54 Is an Integral Part of Its ATPase Domain and Is Required for Efficient DNA Repair and Recombination”

Key:
Rad54 = molecular target: T1, Rad54 (Saccharomyces cerevisiae, UniProt P32863 1-898); assay: EMSA (native PAGE); no ATP; Buffer D: 40 mM Tris-HCl pH 7.8, 50 mM KCl, 1 mM DTT, 100 µg/ml BSA, 30 °C, 10 min; plasmid 30 µM nucleotides with 31.25-1000 nM protein; 49-mer 3 nM with 12.5-200 nM protein; details: protein: recombinant; blunt
T1 sequence: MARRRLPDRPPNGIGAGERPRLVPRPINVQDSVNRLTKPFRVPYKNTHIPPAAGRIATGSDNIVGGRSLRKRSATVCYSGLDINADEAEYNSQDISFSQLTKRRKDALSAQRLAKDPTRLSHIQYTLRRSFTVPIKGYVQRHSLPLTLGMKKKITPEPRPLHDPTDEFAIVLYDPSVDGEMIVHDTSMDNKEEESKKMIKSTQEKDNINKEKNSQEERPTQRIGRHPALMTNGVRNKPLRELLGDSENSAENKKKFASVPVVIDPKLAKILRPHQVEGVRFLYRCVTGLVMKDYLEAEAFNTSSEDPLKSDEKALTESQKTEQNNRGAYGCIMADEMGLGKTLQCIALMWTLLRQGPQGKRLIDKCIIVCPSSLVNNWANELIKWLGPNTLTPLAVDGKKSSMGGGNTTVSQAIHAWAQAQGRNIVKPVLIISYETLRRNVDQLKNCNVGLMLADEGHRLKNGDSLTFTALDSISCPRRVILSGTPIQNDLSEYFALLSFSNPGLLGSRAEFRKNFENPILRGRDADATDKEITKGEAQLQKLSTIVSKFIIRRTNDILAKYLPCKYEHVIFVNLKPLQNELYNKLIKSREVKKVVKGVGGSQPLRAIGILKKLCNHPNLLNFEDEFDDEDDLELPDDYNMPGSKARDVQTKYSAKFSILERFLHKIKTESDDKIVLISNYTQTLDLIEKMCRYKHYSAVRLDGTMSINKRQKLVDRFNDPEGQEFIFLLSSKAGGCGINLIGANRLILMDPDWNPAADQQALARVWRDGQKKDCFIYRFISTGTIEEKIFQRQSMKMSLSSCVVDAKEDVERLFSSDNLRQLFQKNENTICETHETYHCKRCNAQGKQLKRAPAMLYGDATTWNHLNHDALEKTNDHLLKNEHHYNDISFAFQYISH

Rad54-AA = molecular target: T2, Rad54-AA (Saccharomyces cerevisiae, UniProt P32863 1-898, Y494A;F495A); assay: EMSA (native PAGE); no ATP; equal to wild type; Buffer D: 40 mM Tris-HCl pH 7.8, 50 mM KCl, 1 mM DTT, 100 µg/ml BSA, 30 °C, 10 min; plasmid 30 µM nucleotides with 31.25-1000 nM protein; 49-mer 3 nM with 12.5-200 nM protein; details: protein: recombinant; blunt
T2 sequence: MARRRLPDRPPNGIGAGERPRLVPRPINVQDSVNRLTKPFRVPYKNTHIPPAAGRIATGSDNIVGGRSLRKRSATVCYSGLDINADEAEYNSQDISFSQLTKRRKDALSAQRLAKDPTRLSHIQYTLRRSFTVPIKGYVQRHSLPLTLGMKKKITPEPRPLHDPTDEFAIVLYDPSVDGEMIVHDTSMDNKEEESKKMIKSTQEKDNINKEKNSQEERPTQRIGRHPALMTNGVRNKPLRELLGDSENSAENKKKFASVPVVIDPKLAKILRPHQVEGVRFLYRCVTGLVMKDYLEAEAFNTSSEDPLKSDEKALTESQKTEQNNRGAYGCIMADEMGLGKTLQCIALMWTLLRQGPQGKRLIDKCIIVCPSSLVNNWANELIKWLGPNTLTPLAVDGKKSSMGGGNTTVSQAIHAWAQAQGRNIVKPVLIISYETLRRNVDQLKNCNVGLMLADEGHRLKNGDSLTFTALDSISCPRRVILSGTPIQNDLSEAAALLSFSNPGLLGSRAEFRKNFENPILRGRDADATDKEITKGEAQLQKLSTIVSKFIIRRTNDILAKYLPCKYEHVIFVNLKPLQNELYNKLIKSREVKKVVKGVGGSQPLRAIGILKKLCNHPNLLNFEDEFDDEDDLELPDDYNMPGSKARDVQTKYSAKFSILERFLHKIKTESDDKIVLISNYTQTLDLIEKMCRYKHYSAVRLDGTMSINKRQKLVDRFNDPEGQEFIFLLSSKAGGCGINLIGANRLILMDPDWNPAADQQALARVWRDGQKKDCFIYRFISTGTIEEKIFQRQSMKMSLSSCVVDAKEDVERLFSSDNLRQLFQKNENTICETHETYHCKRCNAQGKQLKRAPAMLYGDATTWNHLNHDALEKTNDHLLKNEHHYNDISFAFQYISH

B1: dsDNA 49-mer (dsDNA)
DNA 1: AGCTACCATGCCTGCACGAATTAAGCAATTCGTAATCATGGTCATAGCT
DNA 2: AGCTATGACCATGATTACGAATTGCTTAATTCGTGCAGGCATGGTAGCT
Q: Does B1 bind (Rad54)?
A: binds

Q: Does B1 bind (Rad54-AA)?
A: binds
